# From IntAct's records for PubMed 15485833
# B1: Actin nucleation-promoting factor WASL (Homo sapiens), O00401 (parent)
# chain: MSSVQQQPPPPRRVTNVGSLLLTPQENESLFTFLGKKCVTMSSAVVQLYAADRNCMWSKKCSGVACLVKDNPQRSYFLRIFDIKDGKLLWEQELYNNFVYNSPRGYFHTFAGDTCQVALNFANEEEAKKFRKAVTDLLGRRQRKSEKRRDPPNGPNLPMATVDIKNPEITTNRFYGPQVNNISHTKEKKKGKAKKKRLTKADIGTPSNFQHIGHVGWDPNTGFDLNNLDPELKNLFDMCGISEAQLKDRETSKVIYDFIEKTGGVEAVKNELRRQAPPPPPPSRGGPPPPPPPPHNSGPPPPPARGRGAPPPPPSRAPTAAPPPPPPSRPSVAVPPPPPNRMYPPPPPALPSSAPSGPPPPPPSVLGVGPVAPPPPPPPPPPPGPPPPPGLPSDGDHQVPTTAGNKAALLDQIREGAQLKKVEQNSRPVSCSGRDALLDQIRQGIQLKSVADGQESTPPTPAPTSGIVGALMEVMQKRSKAIHSSDEDEDEDDEEDFEDDDEWED
# Variants of: B1
# Settings: with arpc1_yeast ARC40, P38328
# arpc1_yeast ARC40, P38328, sequence (P38328 whole entry): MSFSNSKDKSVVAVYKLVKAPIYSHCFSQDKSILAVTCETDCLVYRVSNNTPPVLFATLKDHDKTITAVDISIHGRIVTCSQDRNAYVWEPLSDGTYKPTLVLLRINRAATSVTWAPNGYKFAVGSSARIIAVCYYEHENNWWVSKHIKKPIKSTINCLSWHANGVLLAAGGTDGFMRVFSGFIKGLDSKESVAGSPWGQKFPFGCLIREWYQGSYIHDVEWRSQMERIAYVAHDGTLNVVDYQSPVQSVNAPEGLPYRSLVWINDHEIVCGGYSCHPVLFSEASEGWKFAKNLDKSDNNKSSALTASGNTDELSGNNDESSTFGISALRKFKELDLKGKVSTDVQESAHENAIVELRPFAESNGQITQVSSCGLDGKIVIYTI
row,effect of a mutation on the interaction,Variant
1,decreasing interaction,MSSVQQQPPPPRRVTNVGSLLLTPQENESLFTFLGKKCVTMSSAVVQLYAADRNCMWSKKCSGVACLVKDNPQRSYFLRIFDIKDGKLLWEQELYNNFVYNSPRGYFHTFAGDTCQVALNFANEEEAKKFRKAVTDLLGRRQRKSEKRRDPPNGPNLPMATVDIKNPEITTNRFYGPQVNNISHTKEKKKGKAKKKRLTKADIGTPSNFQHIGHVGWDPNTGFDLNNLDPELKNLFDMCGISEAQLKDRETSKVIYDFIEKTGGVEAVKNELRRQAPPPPPPSRGGPPPPPPPPHNSGPPPPPARGRGAPPPPPSRAPTAAPPPPPPSRPSVAVPPPPPNRMYPPPPPALPSSAPSGPPPPPPSVLGVGPVAPPPPPPPPPPPGPPPPPGLPSDGDHQVPTTAGNKAALLDQIREGAQLKKVEQNSRPVSCSGRDALLDQIRQGIQLKSVADGQESTPPTPAPTSGIVGALMEVMQKRSKAIHSSDEDEDEDDEEDFEDDDEAED [W503A]

# Variants of: B1
# Settings: with arp3_yeast ARP3, P47117
# arp3_yeast ARP3, P47117, sequence (P47117 whole entry): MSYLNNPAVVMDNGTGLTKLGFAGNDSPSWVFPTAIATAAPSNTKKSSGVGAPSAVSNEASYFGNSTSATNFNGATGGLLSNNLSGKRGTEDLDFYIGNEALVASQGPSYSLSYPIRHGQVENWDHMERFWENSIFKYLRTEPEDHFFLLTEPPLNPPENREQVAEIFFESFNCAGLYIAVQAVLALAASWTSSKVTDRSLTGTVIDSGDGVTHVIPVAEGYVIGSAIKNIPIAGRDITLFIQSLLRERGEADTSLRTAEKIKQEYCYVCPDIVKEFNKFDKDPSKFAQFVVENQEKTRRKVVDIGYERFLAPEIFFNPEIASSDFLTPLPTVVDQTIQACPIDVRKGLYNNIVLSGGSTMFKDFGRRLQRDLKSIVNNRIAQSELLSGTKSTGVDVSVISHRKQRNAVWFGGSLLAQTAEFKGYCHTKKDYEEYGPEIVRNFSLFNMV
row,effect of a mutation on the interaction,Variant
1,decreasing interaction,MSSVQQQPPPPRRVTNVGSLLLTPQENESLFTFLGKKCVTMSSAVVQLYAADRNCMWSKKCSGVACLVKDNPQRSYFLRIFDIKDGKLLWEQELYNNFVYNSPRGYFHTFAGDTCQVALNFANEEEAKKFRKAVTDLLGRRQRKSEKRRDPPNGPNLPMATVDIKNPEITTNRFYGPQVNNISHTKEKKKGKAKKKRLTKADIGTPSNFQHIGHVGWDPNTGFDLNNLDPELKNLFDMCGISEAQLKDRETSKVIYDFIEKTGGVEAVKNELRRQAPPPPPPSRGGPPPPPPPPHNSGPPPPPARGRGAPPPPPSRAPTAAPPPPPPSRPSVAVPPPPPNRMYPPPPPALPSSAPSGPPPPPPSVLGVGPVAPPPPPPPPPPPGPPPPPGLPSDGDHQVPTTAGNKAALLDQIREGAQLKKVEQNSRPVSCSGRDALLDQIRQGIQLKSVADGQESTPPTPAPTSGIVGALMEVMQKRSKAIHSSDEDEDEDDEEDFEDDDEAED [W503A]

# Variants of: B1
# Settings: with arp2_yeast ARP2, P32381
# arp2_yeast ARP2, P32381, sequence (P32381 whole entry): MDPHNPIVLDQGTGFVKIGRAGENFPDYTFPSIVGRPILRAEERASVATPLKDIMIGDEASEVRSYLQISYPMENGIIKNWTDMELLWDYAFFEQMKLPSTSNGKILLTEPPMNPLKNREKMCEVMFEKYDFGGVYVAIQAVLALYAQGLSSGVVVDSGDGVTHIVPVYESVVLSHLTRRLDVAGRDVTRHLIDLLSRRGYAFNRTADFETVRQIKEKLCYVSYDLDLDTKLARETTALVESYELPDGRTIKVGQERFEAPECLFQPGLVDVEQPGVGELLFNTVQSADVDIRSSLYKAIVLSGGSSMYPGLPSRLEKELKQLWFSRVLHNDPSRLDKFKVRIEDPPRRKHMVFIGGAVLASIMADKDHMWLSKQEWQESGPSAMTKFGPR
row,effect of a mutation on the interaction,Variant
1,decreasing interaction,MSSVQQQPPPPRRVTNVGSLLLTPQENESLFTFLGKKCVTMSSAVVQLYAADRNCMWSKKCSGVACLVKDNPQRSYFLRIFDIKDGKLLWEQELYNNFVYNSPRGYFHTFAGDTCQVALNFANEEEAKKFRKAVTDLLGRRQRKSEKRRDPPNGPNLPMATVDIKNPEITTNRFYGPQVNNISHTKEKKKGKAKKKRLTKADIGTPSNFQHIGHVGWDPNTGFDLNNLDPELKNLFDMCGISEAQLKDRETSKVIYDFIEKTGGVEAVKNELRRQAPPPPPPSRGGPPPPPPPPHNSGPPPPPARGRGAPPPPPSRAPTAAPPPPPPSRPSVAVPPPPPNRMYPPPPPALPSSAPSGPPPPPPSVLGVGPVAPPPPPPPPPPPGPPPPPGLPSDGDHQVPTTAGNKAALLDQIREGAQLKKVEQNSRPVSCSGRDALLDQIRQGIQLKSVADGQESTPPTPAPTSGIVGALMEVMQKRSKAIHSSDEDEDEDDEEDFEDDDEAED [W503A]
